Test results from patent US20230357342A1 (published 2023).

T1: IL-18 receptor on HEK-Blue IL18R reporter cells (UniProt Q13478 19-541; O95256 20-599, limits assumed)
T1 sequence (looked up) 1: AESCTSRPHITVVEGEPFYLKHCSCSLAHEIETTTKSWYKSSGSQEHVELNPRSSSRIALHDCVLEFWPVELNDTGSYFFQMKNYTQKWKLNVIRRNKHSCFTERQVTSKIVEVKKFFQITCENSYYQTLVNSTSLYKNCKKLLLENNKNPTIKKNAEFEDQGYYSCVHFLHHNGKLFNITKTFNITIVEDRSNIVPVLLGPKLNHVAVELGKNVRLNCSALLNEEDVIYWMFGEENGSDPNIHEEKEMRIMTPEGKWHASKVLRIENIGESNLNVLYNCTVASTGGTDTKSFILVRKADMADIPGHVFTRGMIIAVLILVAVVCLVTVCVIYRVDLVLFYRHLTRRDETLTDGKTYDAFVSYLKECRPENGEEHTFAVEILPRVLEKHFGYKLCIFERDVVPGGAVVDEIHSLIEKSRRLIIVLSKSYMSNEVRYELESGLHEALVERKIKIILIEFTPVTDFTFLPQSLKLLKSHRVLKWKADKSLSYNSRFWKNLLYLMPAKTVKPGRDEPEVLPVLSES
T1 sequence (looked up) 2: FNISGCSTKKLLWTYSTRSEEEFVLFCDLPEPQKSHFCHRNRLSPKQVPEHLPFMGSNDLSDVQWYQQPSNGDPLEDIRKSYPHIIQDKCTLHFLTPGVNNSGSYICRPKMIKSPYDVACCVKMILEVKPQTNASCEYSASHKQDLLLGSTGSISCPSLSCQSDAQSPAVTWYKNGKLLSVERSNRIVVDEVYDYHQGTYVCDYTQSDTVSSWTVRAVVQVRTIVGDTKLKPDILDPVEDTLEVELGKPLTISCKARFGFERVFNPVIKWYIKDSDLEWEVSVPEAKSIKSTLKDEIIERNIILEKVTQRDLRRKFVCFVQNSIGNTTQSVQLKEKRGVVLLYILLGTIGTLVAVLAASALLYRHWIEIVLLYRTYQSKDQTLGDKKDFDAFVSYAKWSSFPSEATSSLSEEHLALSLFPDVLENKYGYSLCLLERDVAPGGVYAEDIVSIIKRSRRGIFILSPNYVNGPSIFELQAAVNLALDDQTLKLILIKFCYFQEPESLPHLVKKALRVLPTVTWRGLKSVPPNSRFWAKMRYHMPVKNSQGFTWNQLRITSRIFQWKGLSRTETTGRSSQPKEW


Biological target: T1, IL-18 receptor on HEK-Blue IL18R …
Assay: cell-based or functional assay

| Binder | EC50, HEK-Blue IL18R reporter (SEAP) [nM] |
| --- | --- |
| modified IL-18 polypeptide SEQ ID NO: 208 (V11I, C38A, K53A, D54A, C76A, C127A) (ligand) YFGKLESKLSIIRNLNDQVLFIDQGNRPLFEDMTDSDARDNAPRTIFIISMYAASQPRGMAVTISVKCEKISTLSAENKIISFKEMNPPDNIKDTKSDIIFFQRSVPGHDNKMQFESSSYEGYFLAAEKERDLFKLILKKEDELGDRSIMFTVQNED | 1 |
| modified IL-18 polypeptide SEQ ID NO: 211 (V11I, T34A, C38A, K53A, C76A, C127A) (ligand) YFGKLESKLSIIRNLNDQVLFIDQGNRPLFEDMADSDARDNAPRTIFIISMYADSQPRGMAVTISVKCEKISTLSAENKIISFKEMNPPDNIKDTKSDIIFFQRSVPGHDNKMQFESSSYEGYFLAAEKERDLFKLILKKEDELGDRSIMFTVQNED | 0.7 |
| modified IL-18 polypeptide SEQ ID NO: 213 (V11I, S36A, C38A, K53A, C76A, C127A) (ligand) YFGKLESKLSIIRNLNDQVLFIDQGNRPLFEDMTDADARDNAPRTIFIISMYADSQPRGMAVTISVKCEKISTLSAENKIISFKEMNPPDNIKDTKSDIIFFQRSVPGHDNKMQFESSSYEGYFLAAEKERDLFKLILKKEDELGDRSIMFTVQNED | 0.25 |
| modified IL-18 polypeptide SEQ ID NO: 217 (V11I, C38A, N41A, K53A, C76A, C127A) (ligand) YFGKLESKLSIIRNLNDQVLFIDQGNRPLFEDMTDSDARDAAPRTIFIISMYADSQPRGMAVTISVKCEKISTLSAENKIISFKEMNPPDNIKDTKSDIIFFQRSVPGHDNKMQFESSSYEGYFLAAEKERDLFKLILKKEDELGDRSIMFTVQNED | 11.7 |
| modified IL-18 polypeptide SEQ ID NO: 212 (V11I, D35A, C38A, K53A, C76A, C127A) (ligand) YFGKLESKLSIIRNLNDQVLFIDQGNRPLFEDMTASDARDNAPRTIFIISMYADSQPRGMAVTISVKCEKISTLSAENKIISFKEMNPPDNIKDTKSDIIFFQRSVPGHDNKMQFESSSYEGYFLAAEKERDLFKLILKKEDELGDRSIMFTVQNED | 13.1 |
| modified IL-18 polypeptide SEQ ID NO: 215 (V11I, E31A, D37A, C38A, K53A, C76A, C127A) (ligand) YFGKLESKLSIIRNLNDQVLFIDQGNRPLFADMTDSAARDNAPRTIFIISMYADSQPRGMAVTISVKCEKISTLSAENKIISFKEMNPPDNIKDTKSDIIFFQRSVPGHDNKMQFESSSYEGYFLAAEKERDLFKLILKKEDELGDRSIMFTVQNED | 11.9 |
| modified IL-18 polypeptide SEQ ID NO: 214 (V11I, D37A, C38A, K53A, C76A, C127A) (ligand) YFGKLESKLSIIRNLNDQVLFIDQGNRPLFEDMTDSAARDNAPRTIFIISMYADSQPRGMAVTISVKCEKISTLSAENKIISFKEMNPPDNIKDTKSDIIFFQRSVPGHDNKMQFESSSYEGYFLAAEKERDLFKLILKKEDELGDRSIMFTVQNED | 14.1 |
| modified IL-18 polypeptide SEQ ID NO: 209 (F2A, V11I, C38A, K53A, C76A, C127A) (ligand) YAGKLESKLSIIRNLNDQVLFIDQGNRPLFEDMTDSDARDNAPRTIFIISMYADSQPRGMAVTISVKCEKISTLSAENKIISFKEMNPPDNIKDTKSDIIFFQRSVPGHDNKMQFESSSYEGYFLAAEKERDLFKLILKKEDELGDRSIMFTVQNED | 7.28 |
| modified IL-18 polypeptide SEQ ID NO: 210 (V11I, E31A, C38A, K53A, C76A, C127A) (ligand) YFGKLESKLSIIRNLNDQVLFIDQGNRPLFADMTDSDARDNAPRTIFIISMYADSQPRGMAVTISVKCEKISTLSAENKIISFKEMNPPDNIKDTKSDIIFFQRSVPGHDNKMQFESSSYEGYFLAAEKERDLFKLILKKEDELGDRSIMFTVQNED | 6.6 |
| modified IL-18 polypeptide SEQ ID NO: 216 (V11I, C38A, D40A, K53A, C76A, C127A) (ligand) YFGKLESKLSIIRNLNDQVLFIDQGNRPLFEDMTDSDARANAPRTIFIISMYADSQPRGMAVTISVKCEKISTLSAENKIISFKEMNPPDNIKDTKSDIIFFQRSVPGHDNKMQFESSSYEGYFLAAEKERDLFKLILKKEDELGDRSIMFTVQNED | 0.52 |
